First the molecules themselves.
T1: human CCL17 (human, UniProt Q92583 24-94)
T1 construct: Biotinylated in the ELISA screens; also called huCCL17; Bt-huCCL17
T1 sequence: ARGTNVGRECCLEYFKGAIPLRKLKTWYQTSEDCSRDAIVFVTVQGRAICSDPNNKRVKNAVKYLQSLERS

T2: cyno CCL17 (Macaca fascicularis (cyno), UniProt Q8HYP9 24-94 (rhesus entry))
T2 construct: Biotinylated in the ELISA screens; also called cCCL17; Macaca fascicularis CCL17
T2 sequence: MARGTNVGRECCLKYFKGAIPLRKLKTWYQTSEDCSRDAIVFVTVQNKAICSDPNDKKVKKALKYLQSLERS

B1: C17F319 Fab variant W100a to F (Fab, V domains shown)
VH: EVQLVQSGAEVKKPGESLKISCKGSGYSFTSYWIGWVRQMPGKGLEWMGIIDPSDSDTRYSPSFQGQVTISADKSISTAYLQWSSLKASDTAMYYCARVGPADVFDSFDYWGQGTLVTVSS
VL: DIVMTQSPDSLAVSLGERATINCKSSQSVLLSPWNSNQLAWYQQKPGQPPKLLIYGASTRESGVPDRFSGSGSGTDFTLTISSLQAEDVAVYYCQQYYLIPSTFGQGTKVEIK
notes: also called W→F
B2: C17F319 Fab variant W100a to I (Fab, V domains shown)
VH: B1 VH with F105I
VL: B1 VL
notes: also called W→I
B3: C17F319 Fab variant W100a to Y (Fab, V domains shown)
VH: B1 VH with F105Y
VL: B1 VL
notes: also called W→Y
B4: C17F319 Fab variant W100a to R (Fab, V domains shown)
VH: B1 VH with F105R
VL: B1 VL
notes: also called W→R
B5: C17F319 Fab variant W100a to T (Fab, V domains shown)
VH: B1 VH with F105T
VL: B1 VL
notes: also called W→T

Residue numbers refer to the chain shown, from its start.

Consider five molecules from patent publication US20150125458A1 (Janssen / Centocor, published 2015).

For one test, the target named is T1, human CCL17. As to the kind of experiment: ranking Fab ELISA with bt-human and bt-cyno CCL17. On the technique in general: In an ELISA, binding on a coated surface is turned into a signal by an enzyme label.
On to B1, for which the binding result is reported as “binds”. Still for that read-out and setting: in the case of B2 it was “binds”; in that of B3, “binds”.

The next test addresses T2, cyno CCL17. As to the kind of experiment: ranking Fab ELISA with bt-human and bt-cyno CCL17.
In the case of B1, the binding result was “binds”.

Regarding B2, the binding result is “binds”. Turning to B3, the binding result is “binds”.

In the case of B4, the binding result was “binds”. Same read-out and setting: then B5, with “binds”.
